Measurements: the nanobody polyreactivity screen of Harvey et al. (2022)

Experiment: yeast display, Sf9 membrane polyspecificity reagent, FACS + sequencing; frameworks hold sequencing errors
Method in brief: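 Using colony PCR, genes from sorted yeast display clones were amplified, then sequenced on MiSeq at 2 × 250 and filtered by CDR length. The clones had been stained with 10% biotinylated, detergent-solubilized Sf9 membrane reagent for 1 hour at 4 °C and sorted by FACS into low and high (top ~1%) gates on anti-HA and streptavidin fluorescence. Polyreactivity labels come from the gate of origin.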

Sequence | polyreactivity (PSR sort gate)
QVQLVESGGGLVQAGGSLRLSCAASGFIFPGYAMGWYRQAPGKERELVAAITRSGGSTYYADSVKGRFTISRDNAKNTVYLQMNSLKPEDTAVYYCAAYVSGYRWGYDYWGQGTQVTVSS | high polyreactivity
QVQLVESGGGLVQAGGSLRLSCAASGFIFPGYTMGWYRQAPGKERELVAAISRGSSTYYADSVKRRFTISRDNAKNSVYLQMNSLKPEDTAVYYCAADYSYIYGFDYWGQGTQVTVSS | low polyreactivity
QVQLVESGGGLVQAGGSLRLSCAASGFIFPHNTMGWYRQAPGKERELVAAISSGGSTNYADSVKGRFTISRDNAKNTVYLQMNSLKPEDTAVYYCNKRVRYHSGFGYWGQGTQVTVSS | low polyreactivity
QVQLVESGGGLVQAGGSLRLSCAASGFIFPLYAMGWYRQAPGKERELVAAITWRGDTTSYADSVKGRFTISRDNAKNTVYLQKNSLKPEDTAVDYCAAVRYPSGYDYWGQGTQVTVSS | high polyreactivity
QVQLVESGGGLVQAGGSLRLSCAASGFIFPLYAMGWYRQAPGKERELVAAITWRGDTTSYADSVKGRFTISRDNAKNTVYLQMNSLKPEDTAVYYCAAVRYPSGYDYWGQGTQVTVSS | high polyreactivity
QVQLVESGGGLVQAGGSLRLSCAASGFIFPPYAMGWYRQAPGKERELVAAIRISGGSTYYADSVKGRFTISRDNAKNTVYLQMNSLKPEDTAVYYCAARYVSSTPAYAYYYWGQGTQVTVSS | high polyreactivity
QVQLVESGGGLVQAGGSLRLSCAASGFIFPWYAMGWYRQAPGKERELVAAISESGGGTYYADSVKGRFTISRDYAKNTVYLQMNSLKPEDTAVYYCNKAPRYPYGGYDYWGQGTQVTVSS | low polyreactivity
QVQLVESGGGLVQAGGSLRLSCAASGFIFPWYAMGWYRQAPGKERELVAIISWDTGSTYYADSVKGRFTISRDNAKNTVYLQMNSLKPEDTAVYYCAAQQPYAGLYYWGQGTQVTVSS | low polyreactivity
QVQLVESGGGLVQAGGSLRLSCAASGFIFPYDAMGWYSQAPGNERELVAAITSSGGRTYYADSVQGRFTISRDNAKNTVYFQMNSLKPEDTAVYYCAARGAPPAYGYWGQGTQVTVSS | high polyreactivity
QVQLVESGGGLVQAGGSLRLSCAASGFIFPYNEMGWYRPAPGKERELGAAITSGSNTYYADSVKGRFTISRDNAKNTVYLQLNSLKPEDTAFYYCAARRRIYRSMGYWGQGSQVTVSS | low polyreactivity
QVQLVESGGGLVQAGGSLRLSCAASGFIFPYNTMGWYRQAPGTERELVAAIDSGGSTNYADSVKGRFTISRDNAKNTVDLQMNSLKPEDTAVYYCAADDPGSWWVGLLLTGVDDDYWGQGTQVTVSS | low polyreactivity
QVQLVESGGGLVQAGGSLRLSCAASGFIFPYYARGWYRQAPGKERELVAGITGADSTYYADSVKGRFTISRDNAKNTVYLQMNSLKPEDTAVYYCARKRYSLSRTYNYGYWGQGTQVTVSS | high polyreactivity
QVQLVESGGGLVQAGGSLRLSCAASGFIFQANAMGWYRQAPGKETELDAAIDDGDTTYADSVKGRFTISRDNAKNTVYLQMNSLKPEDTAGYYCATRRNRSYDYWGQGTQVTVSS | low polyreactivity
QVQLVESGGGLVQAGGSLRLSCAASGFIFQANPMGWYRPAPGKERELVAAIDDGDSTYADSVKGRFTISRDNAKNTVYLQMNSLKPEDTAVYYCATRRKRSYDYWGHGTQVTVSS | low polyreactivity
QVQLVESGGGLVQAGGSLRLSCAASGFIFQDYALGWYRQAPGKERELVAAISRSTGSTYYADSVKGRFTISRDNPKNTVYLQMNSLKPEDTAVYYCAKPRSWGYNWGQGTQVTVSS | high polyreactivity
QVQLVESGGGLVQAGGSLRLSCAASGFIFQKYAMGWYRQAPGKERELVAAIRYDGGSTYYADSVKGRFTISRDNAKNTVYLQMNSLKPDDTAVYYCAAYGPRLLIYPPYRYNYWGQGTQVTVSS | high polyreactivity
QVQLVESGGGLVQAGGSLRLSCAASGFIFQKYAMGWYRQAPGKERELVAAIRYDGGSTYYADSVKGRFTISRDNAKNTVYLQMNSLKPEDTAVYYCAAYGPRFLIYPPYRYNYWGQGTQVTVSS | high polyreactivity
QVQLVESGGGLVQAGGSLRLSCAASGFIFQPNAMGWYRQAPGKERELVAVITWSGGSTYYADSVKGRFTISRDNAKNTVYLQMNSLKPEDTAVYYCAVDGAYDQKPTDLKGYYYWGQGTQVTVSS | low polyreactivity
QVQLVESGGGLVQAGGSLRLSCAASGFIFQPYAMGWYRQAPRKERELVAAITSRGGRTYYADSVKGRFTISRDNAKNTVYLQMNSLKPEDTAVYYCNGDIYASEYYYWGQGTQVTVSS | low polyreactivity
QVQLVESGGGLVQAGGSLRLSCAASGFIFQRYAMGCYRQAPGKERELVAAISKGGGNTYYADSVKGRFTISRDNAKKTVYLQMNSLKPEDTAVYYCNAVPRPDHDYWGQGTQVTVSS | high polyreactivity
QVQLVESGGGLVQAGGSLRLSCAASGFIFQRYAMGWYRQAPGKERELVAAITKSGGSTYYADSVKGRYTISRDNAKNTVYLQMNSLKPEDTAVYYCNAYRYGSYRPHQEDYDYWGQGTQVTVSS | high polyreactivity
QVQLVESGGGLVQAGGSLRLSCAASGFIFQTNVMGWYRQAPGKERELVAAISSGDSTYYADSVKGRFTISRDNAKNTVYLQMNSLKPEDTAVYYCAADVLGTTTTVGGFNYWGQGTQVTVSS | low polyreactivity

Sequence | polyreactivity (PSR sort gate)
QVQLVESGGGLVQAGGSLRLSCAASGFIFQYFAMGWYRQAPGKERELVAGITSGVRPYYADSLKGRFTISRDNAKNTVYLQMNSLKPEDTAVYYCARLDSAAEPRQYDYWGQGTQVTVSS | high polyreactivity
QVQLVESGGGLVQAGGSLRLSCAASGFIFQYYAMGWYRQAPGKERELVAAIRISGGSTYYADSVKGRFTSSRDNAKNTVYLQMNSLKPEDTAVYYCAARQIITKFYTSNGVSSYYWGQGTQVTVSS | high polyreactivity
QVQLVESGGGLVQAGGSLRLSCAASGFIFRAYTMGWYRQAPGKERELVAGITSGGSTYYADSVKGRFTISRDNAKNTVYLQMNSLKPDDTAVYYCATYYRRWTPIPYEYWGQGTQVTVSS | high polyreactivity
QVQLVESGGGLVQAGGSLRLSCAASGFIFRDNAKGWYRQAPGKERELVAAISSGGTTKYADSVKGRFTISRDNAKNTVYLQMNSLKPEDTAVYYCAKGYAARIWRIYSRLYYWGQGTQVTVSS | high polyreactivity
QVQLVESGGGLVQAGGSLRLSCAASGFIFRDNAMGWYRQAPGKERELVAAISKSGGRTYYADSVKGRFTISRDNAKNTVYLQMNSLKPEDTAVYYCAKASRYWSLYYWGQGTQVTVSS | high polyreactivity
QVQLVESGGGLVQAGGSLRLSCAASGFIFRDNAMGWYRQSPGKERELVAAISERGGRTYYADSVKGRFTISRDNAKNTVYLQMNSLKPEDTAVYYCADEDIAKFYYWGQGTQVTVSS | high polyreactivity
QVQLVESGGGLVQAGGSLRLSCAASGFIFRGNAMGWYRQAPGKERELVAAISRRGGTTYYADSVKGRFTISRDNAKNTVYLQMNSLKPEDTAVYYCAKLVVVPFYYWGQGTQVTVSS | high polyreactivity
QVQLVESGGGLVQAGGSLRLSCAASGFIFRGNAMGWYRQAPGKERELVAAISWSGGNTYYADSVKGRFTISRDNAKNTVYLQMNSLKPEDTAVYYCAAGATWSRQGSIRYNYWGQGTQVTVSS | high polyreactivity
QVQLVESGGGLVQAGGSLRLSCAASGFIFRGNAMGWYRQATGKERELVAGIRSLGGTTSYADSVKVRFTISRDNAKNTVYLQMNSLKPDDSGVYYCAAGYGADFDYWGQGTQVTVSS | low polyreactivity
QVQLVESGGGLVQAGGSLRLSCAASGFIFRGYAMGWYRQAPGKERELVAAISRRGGSTYYADSVKGRFTISRDNAKNTVYLHMNSLKPEDTAVYYCNAETTPQGNVRDGYWGQGTQVTVSS | high polyreactivity
QVQLVESGGGLVQAGGSLRLSCAASGFIFRHNAMGWYRQAPGKEREFVAAISISGGSTYYADSVKGRFTISRDNAKNTVDLQMNSLKPEDTAVYYCNARSLGNTYLLYDYWGQGTQVTVSS | low polyreactivity
QVQLVESGGGLVQAGGSLRLSCAASGFIFRHNAMVWYRQAPGKERELVAAITKRGGDTYYADSVKGRFTISRDNAKNTVYLQMISLKPEDTAVYYCNVDVRYPKYYYWGQGTQVTVSS | low polyreactivity
QVQLVESGGGLVQAGGSLRLSCAASGFIFRKYVMGWYRQAPGKERELVAAITRSGTSTYYADSVKGRFTISRDNAKNTVYLQMNSLKPEDNAVYYCNVGSDGWYYWGQGTQVTVSS | low polyreactivity
QVQLVESGGGLVQAGGSLRLSCAASGFIFRLYAMGWYRQAPGKERELVAAISGRGGNTYYADSVKGRFTISRDNAKNTVYLQMNSLKPEDTAVYYCAADRPGTGYSDYDYWGQGTQVTVSS | high polyreactivity
QVQLVESGGGLVQAGGSLRLSCAASGFIFRLYAMGWYRQAPGKERELVAAISRGGSTTYADSVKGRFTISRDNAKNTVYLQMNSLKPEDTAVYYCATEGDYVAYLYDYWGQGTQVTVSS | low polyreactivity
QVQLVESGGGLVQAGGSLRLSCAASGFIFRPNAMGWYRQAPGKERELVAAITRDGDRTYYADSVKGRFTISRDNAKNTVYLQMNSLKPEETAVYYCAADVIQWWTRYYTWEYDYWGQGTQVTVSS | low polyreactivity
QVQLVESGGGLVQAGGSLRLSCAASGFIFRPYAMGSYRQAPGKERELVAAISYGDGITYYADSVKGRFTISRDNAKNTVYLQMNSLKPEDTAVYYCAAEYVSHFSGYRYDYWGQGTQVTVSS | low polyreactivity
QVQLVESGGGLVQAGGSLRLSCAASGFIFRPYTMGWYRQAPGKERELVAAITYSGGSSTYYADSVKGRFTISRDNAKNTVYLQMNSLKPEDTAVSYCATTPDYGHDYWGQGTQVTVSS | low polyreactivity
QVQLVESGGGLVQAGGSLRLSCAASGFIFRPYVMGWYRQAPGTERELVAAISRSGSSTYYADSVKGRFTISRDNAKNTVYLQMNSLKPEDTAVYYCARRTSQEFDYWGQGTQVTVSS | high polyreactivity
QVQLVESGGGLVQAGGSLRLSCAASGFIFRQDAMGWYRQAPGKERELVAAISWRGGSTYYADSVKGRFTISRDNAKNTEYLQMNSLKPEDTAVYYCATRQTKYSNYRGDYWGQGTQVTVST | high polyreactivity
QVQLVESGGGLVQAGGSLRLSCAASGFIFRQYAMGWYRQAPGKERELVAAISWSGGSTYYADSVKGRFTISRDNAKNTVYLQMNSLKPEDTAVYYCNVLTPPTDYDYWGQGTQVTVSS | high polyreactivity
